Measurements from publication PMC12281766, “Inhibition of FAM19A5 reverses synaptic loss and cognitive decline in mouse models of Alzheimer’s disease” (Alzheimer's Research & Therapy, 2025).
Blank lines part the entries; values can stand above or below the molecule they belong to.

Experiments:
[1] = target: T1, His-TEV LRRC4B; assay: ELISA; captured by His-TEV LRRC4B, detected by HRP-conjugated C-A5-Ab
T1 sequence (Q9NT99 whole entry, species assumed, looked up): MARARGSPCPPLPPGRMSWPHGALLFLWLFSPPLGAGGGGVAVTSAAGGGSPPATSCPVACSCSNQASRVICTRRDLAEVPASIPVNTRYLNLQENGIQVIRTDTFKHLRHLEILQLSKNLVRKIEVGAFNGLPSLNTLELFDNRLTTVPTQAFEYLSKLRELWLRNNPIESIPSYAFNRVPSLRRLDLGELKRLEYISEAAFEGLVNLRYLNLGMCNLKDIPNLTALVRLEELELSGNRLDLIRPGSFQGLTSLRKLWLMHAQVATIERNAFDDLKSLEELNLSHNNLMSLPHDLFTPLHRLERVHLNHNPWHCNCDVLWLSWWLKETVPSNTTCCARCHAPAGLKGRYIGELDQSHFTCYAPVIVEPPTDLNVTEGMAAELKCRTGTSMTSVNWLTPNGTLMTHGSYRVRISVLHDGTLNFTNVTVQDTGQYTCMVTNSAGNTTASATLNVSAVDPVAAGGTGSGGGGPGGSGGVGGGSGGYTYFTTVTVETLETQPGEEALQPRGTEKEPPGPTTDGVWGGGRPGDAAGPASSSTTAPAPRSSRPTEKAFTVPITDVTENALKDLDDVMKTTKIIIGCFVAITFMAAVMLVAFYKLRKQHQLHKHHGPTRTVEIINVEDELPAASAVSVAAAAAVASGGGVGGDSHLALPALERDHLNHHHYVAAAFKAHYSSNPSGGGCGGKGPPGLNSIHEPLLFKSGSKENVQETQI

[2] = target: T1, His-TEV LRRC4B; assay: ELISA; competition: LRRC4B-PTPRF complex in the presence of FAM19A5; captured by His-TEV LRRC4B, detected by HRP-conjugated anti-human IgG Fc
[3] = target: T2, His-TEV LRRC4B; assay: competition ELISA (dissociation of LRRC4B-PTPRF complex); conditions: chain shown with the change; read at the highest FAM19A5 concentration, about 1e4 nM; signal is PTPRF remaining bound to His-TEV LRRC4B, so a lower OD means more displacement by FAM19A5 …; parent: est. 0.16; read off a plot
T2 chain: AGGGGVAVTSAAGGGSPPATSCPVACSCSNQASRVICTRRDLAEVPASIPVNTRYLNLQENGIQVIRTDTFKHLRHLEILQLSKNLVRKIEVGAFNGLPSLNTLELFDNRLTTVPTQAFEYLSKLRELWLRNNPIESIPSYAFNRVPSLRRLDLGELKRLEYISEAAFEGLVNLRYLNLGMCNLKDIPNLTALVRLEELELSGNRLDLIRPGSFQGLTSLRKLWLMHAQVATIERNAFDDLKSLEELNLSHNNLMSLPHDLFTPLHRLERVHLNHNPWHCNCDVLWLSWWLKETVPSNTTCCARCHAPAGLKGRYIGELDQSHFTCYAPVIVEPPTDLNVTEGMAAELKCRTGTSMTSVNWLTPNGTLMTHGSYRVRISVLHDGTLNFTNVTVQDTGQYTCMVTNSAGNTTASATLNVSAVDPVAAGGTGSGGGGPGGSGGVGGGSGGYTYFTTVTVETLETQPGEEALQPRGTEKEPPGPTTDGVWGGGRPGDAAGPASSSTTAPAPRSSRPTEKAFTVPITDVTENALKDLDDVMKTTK

[4] = target: T3, recombinant FAM19A5 (family with sequence similarity 19 member A5) (UniProt Q7Z5A7 44-132); assay: ELISA; competition: FAM19A5 captured by LRRC4B(36–576)-hFc in the presence of inhibitor, detected by HRP-conjugated C-A5-Ab; conditions: both partners purified
T3 construct: FAM19A5 (TAFA5), secretory protein; also called TAFA5; WT FAM19A5; source: recombinant
T3 sequence (Q7Z5A7 44-132): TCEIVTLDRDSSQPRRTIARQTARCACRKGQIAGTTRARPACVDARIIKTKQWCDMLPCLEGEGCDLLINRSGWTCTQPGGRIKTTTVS

- EC50 [1]: 0.595 nM
Molecule: MT FAM19A5 (R58A, R59A) (from UniProt Q7Z5A7 44-132) (natural protein)

- IC50 [2]: 281 nM
- EC50 [1]: 0.41 nM
Molecule: recombinant FAM19A5 (family with sequence similarity 19 member A5) (from UniProt Q7Z5A7 44-132) (natural protein)

- response [3]: 0.52 OD (450 nm)
B1: recombinant FAM19A5 (family with sequence similarity 19 member A5), Q7Z5A7 R58A; R59A; R125A; K127A (protein)
chain: TCEIVTLDRDSSQPAATIARQTARCACRKGQIAGTTRARPACVDARIIKTKQWCDMLPCLEGEGCDLLINRSGWTCTQPGGAIATTTVS

- IC50 [4]: 8.1 nM
B2: LRRC4B(453–576)-hFc (Fc fusion, UniProt Q9NT99 453-576, looked up)
chain: VSAVDPVAAGGTGSGGGGPGGSGGVGGGSGGYTYFTTVTVETLETQPGEEALQPRGTEKEPPGPTTDGVWGGGRPGDAAGPASSSTTAPAPRSSRPTEKAFTVPITDVTENALKDLDDVMKTTK
notes: also called WT FB-containing protein; FB protein; source: recombinant
